Laboratory results reported in doi:10.1101/2025.01.21.634180.

Biological target: GIV (Gα-interacting vesicle-associated protein, also known as Girdin), endogenous (human (endogenous in THP1)) (UniProt Q3V6T2)
Sequence of UniProt Q3V6T2 (Q3V6T2 whole entry): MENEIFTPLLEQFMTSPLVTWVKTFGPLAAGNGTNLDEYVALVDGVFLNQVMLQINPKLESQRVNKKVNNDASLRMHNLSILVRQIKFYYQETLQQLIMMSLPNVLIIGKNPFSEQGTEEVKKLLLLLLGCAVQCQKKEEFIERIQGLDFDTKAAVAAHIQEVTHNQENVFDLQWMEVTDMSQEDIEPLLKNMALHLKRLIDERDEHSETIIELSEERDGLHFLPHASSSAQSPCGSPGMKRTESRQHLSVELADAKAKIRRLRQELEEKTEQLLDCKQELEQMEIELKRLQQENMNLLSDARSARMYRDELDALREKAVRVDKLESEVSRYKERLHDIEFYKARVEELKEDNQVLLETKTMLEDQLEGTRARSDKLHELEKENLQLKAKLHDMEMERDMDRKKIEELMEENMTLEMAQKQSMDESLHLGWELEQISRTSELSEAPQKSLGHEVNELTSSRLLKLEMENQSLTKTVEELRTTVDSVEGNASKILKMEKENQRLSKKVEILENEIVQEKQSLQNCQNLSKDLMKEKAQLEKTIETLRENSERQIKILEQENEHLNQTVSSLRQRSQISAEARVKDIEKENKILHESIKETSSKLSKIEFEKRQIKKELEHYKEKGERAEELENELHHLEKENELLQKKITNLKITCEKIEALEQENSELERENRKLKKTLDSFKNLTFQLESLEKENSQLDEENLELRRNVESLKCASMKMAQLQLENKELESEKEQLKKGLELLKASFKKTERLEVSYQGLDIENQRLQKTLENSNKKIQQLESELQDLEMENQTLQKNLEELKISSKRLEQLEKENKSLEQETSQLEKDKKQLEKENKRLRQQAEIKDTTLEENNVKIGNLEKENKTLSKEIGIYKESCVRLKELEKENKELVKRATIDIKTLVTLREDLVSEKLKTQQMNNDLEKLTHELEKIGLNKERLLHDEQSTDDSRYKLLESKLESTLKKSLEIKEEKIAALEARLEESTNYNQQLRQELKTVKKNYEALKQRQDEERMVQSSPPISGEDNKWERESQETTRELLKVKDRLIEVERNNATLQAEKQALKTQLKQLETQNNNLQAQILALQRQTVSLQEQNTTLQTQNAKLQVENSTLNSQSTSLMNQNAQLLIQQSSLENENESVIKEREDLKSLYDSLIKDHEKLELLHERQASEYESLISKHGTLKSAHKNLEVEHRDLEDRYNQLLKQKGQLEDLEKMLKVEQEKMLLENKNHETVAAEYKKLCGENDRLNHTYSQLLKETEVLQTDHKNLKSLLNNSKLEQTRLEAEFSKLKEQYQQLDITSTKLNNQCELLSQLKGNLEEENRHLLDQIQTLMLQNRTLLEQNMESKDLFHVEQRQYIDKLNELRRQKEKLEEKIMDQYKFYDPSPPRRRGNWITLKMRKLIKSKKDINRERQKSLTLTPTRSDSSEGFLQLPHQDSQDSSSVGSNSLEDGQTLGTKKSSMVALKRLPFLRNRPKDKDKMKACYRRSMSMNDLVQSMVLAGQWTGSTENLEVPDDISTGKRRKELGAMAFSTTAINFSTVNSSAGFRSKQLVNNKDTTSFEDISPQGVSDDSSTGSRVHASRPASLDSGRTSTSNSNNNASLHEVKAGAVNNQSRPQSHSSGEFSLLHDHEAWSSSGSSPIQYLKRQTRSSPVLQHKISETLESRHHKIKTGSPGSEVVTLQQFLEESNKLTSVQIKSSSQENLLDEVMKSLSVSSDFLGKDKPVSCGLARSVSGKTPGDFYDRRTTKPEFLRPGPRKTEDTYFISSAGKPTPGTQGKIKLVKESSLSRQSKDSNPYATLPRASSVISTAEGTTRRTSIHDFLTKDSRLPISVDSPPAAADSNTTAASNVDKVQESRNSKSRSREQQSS

suppression of LPS (100 ng/ml)-induced NFκB activation by MDP (10 μg/ml) pretreatment, luciferase reporter assay in HeLa cells transfected with NOD2-1007fs (% protection): 20%
Substance: HA-tagged NOD2–1007fs (from UniProt Q9HC29 1-1040) (natural protein)
